From US8889621B2, “Inhibiting binding of FGF23 to the binary FGFR-Klotho complex for the treatment of hypophosphatemia” (New York University, priority 2009, dated 2014)
Entries after “also recorded” stand apart in the source; their conditions may differ. One block for each molecule: values may come before it.

Tests used:
[1] = biological target: T1, βKlotho-FGF19 (Mus musculus, UniProt Q99N32); assay: SPR specificity: βKlotho binding to immobilized FGF19^23-216; parameters: species or system murine βKlotho, human FGF19; conditions: molar ratio of 2:1 to βKlotho
T1 construct: the ectodomain of murine βKlotho (F53 to L995) was expressed in HEK293 cells; FLAG (C); made in house; host or cells: HEK293 (βKlotho ectodomain); E. coli (FGF19)
T1 sequence (Q99N32 53-995): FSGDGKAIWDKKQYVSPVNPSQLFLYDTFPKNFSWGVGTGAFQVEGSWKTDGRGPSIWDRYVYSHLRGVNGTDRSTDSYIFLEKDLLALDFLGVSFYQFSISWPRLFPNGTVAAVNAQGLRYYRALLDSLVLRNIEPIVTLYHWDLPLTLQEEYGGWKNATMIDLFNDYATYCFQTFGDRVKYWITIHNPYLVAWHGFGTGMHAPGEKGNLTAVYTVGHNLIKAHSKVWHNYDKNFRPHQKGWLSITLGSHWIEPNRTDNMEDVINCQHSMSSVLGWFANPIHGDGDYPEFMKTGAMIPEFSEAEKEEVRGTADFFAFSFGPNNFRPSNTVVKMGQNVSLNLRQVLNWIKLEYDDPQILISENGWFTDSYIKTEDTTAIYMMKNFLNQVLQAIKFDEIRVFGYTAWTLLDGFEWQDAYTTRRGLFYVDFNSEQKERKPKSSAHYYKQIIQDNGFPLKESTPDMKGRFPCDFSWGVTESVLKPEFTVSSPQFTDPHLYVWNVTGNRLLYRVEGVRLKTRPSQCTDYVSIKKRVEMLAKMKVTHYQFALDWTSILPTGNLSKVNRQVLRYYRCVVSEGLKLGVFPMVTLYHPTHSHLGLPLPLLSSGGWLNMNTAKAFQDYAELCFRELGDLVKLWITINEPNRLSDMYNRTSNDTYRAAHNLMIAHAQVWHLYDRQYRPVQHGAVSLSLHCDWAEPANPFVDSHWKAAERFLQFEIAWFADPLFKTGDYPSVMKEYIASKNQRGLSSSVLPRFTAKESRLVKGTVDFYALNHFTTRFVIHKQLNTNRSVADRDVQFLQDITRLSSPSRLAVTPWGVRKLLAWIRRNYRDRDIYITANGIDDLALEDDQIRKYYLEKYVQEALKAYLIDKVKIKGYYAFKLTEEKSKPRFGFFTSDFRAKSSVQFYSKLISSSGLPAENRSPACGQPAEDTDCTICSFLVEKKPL

[2] = biological target: T2, FGFR1c-βKlotho-FGF21 (UniProt P11362+Q99N32); assay: SPR specificity: FGFR1c-βKlotho binding to immobilized FGF21^29-209; parameters: species or system human FGFR1c, murine βKlotho, human FGF21; conditions: 10-fold molar excess over FGFR1c-βKlotho
T2 construct: the ectodomain of murine βKlotho (F53 to L995) was expressed in HEK293 cells; FLAG (C); made in house; host or cells: E. coli (FGFR1c, FGF21); HEK293 (βKlotho ectodomain)
T2 sequence (P11362 142-365): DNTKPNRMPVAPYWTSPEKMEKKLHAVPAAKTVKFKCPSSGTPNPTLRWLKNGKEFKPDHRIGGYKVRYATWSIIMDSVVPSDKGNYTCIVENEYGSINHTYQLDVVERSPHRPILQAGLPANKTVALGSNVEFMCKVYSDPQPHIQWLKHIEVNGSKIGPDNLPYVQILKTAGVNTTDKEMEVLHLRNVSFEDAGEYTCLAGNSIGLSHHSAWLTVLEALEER
T2 sequence (Q99N32 53-995): T1 sequence (Q99N32 53-995)

[3] = biological target: T3, βKlotho-FGF21 (Mus musculus, UniProt Q99N32); assay: SPR specificity: βKlotho binding to immobilized FGF21^29-209; parameters: species or system murine βKlotho, human FGF21; conditions: molar ratio of 2:1 to βKlotho
T3 construct: the ectodomain of murine βKlotho (F53 to L995) was expressed in HEK293 cells; FLAG (C); made in house; host or cells: HEK293 (βKlotho ectodomain); E. coli (FGF21)
T3 sequence (Q99N32 53-995): T1 sequence (Q99N32 53-995)

[4] = biological target: T4, FGFR1c ectodomain (Homo sapiens, UniProt P11362); assay: SPR: FGFR1c ectodomain passed over immobilized FGF23; format: binding
T4 construct: made in house; host or cells: E. coli
T4 sequence (P11362 142-365): T2 sequence (P11362 142-365)
Method: Surface plasmon resonance (SPR) spectroscopy experiments were performed on a Biacore 2000 instrument (Biacore AB), and FGF23-FGFR1c-Klotho interactions were studied at 25° C. in HBS-EP buffer (10 mM HEPES-NaOH, pH 7.4, 150 mM NaCl, 3 mM EDTA, 0.005% (v/v) polysorbate 20). Proteins were immobilized by amine coupling on flow channels of research grade CM5 chips (Biacore AB). Proteins were injected over a CM5 chip at a flow rate of 50 μl min^−1, and at the end of each protein injection (180 s), HBS-EP buffer (50 μl min^−1) was flowed over the chip to monitor dissociation for 180 s. The chip surface was then regenerated by injecting 50 μl of 2.0 M NaCl in 10 mM sodium acetate, pH 4.5. To control for nonspecific binding in experiments where Klotho ectodomain was immobilized on the chip, β-glucuronidase was coupled to the control flow channel of the chip (˜26-32 fmole/mm^2). […] The data were processed with BiaEvaluation software (Biacore AB). For each protein injection over a Klotho chip, the nonspecific responses from the β-glucuronidase control flow channel were subtracted from the responses recorded for the Klotho flow channel. Similarly, for each protein injection over a FGF chip, the nonspecific responses from the FHF1B control flow channel were subtracted from the responses recorded for the FGF flow channel. […]

B1: FGF23^180-251: 72-amino acid C-terminal tail of human FGF23 (S180 to I251), expressed in E. coli (protein, listed as Homo sapiens)
chain: SAEDDSERDPLNVLKPRARMTPAPASCSQELPSAEDNSPMASDPLGVVRGGRVNTHAGGTGPEGCRPFAKFI
inhibition of βKlotho binding to immobilized FGF19 [1]: failed to inhibit; also recorded: no inhibition
inhibition of FGFR1c-βKlotho binding to immobilized FGF21 [2]: did not affect; also recorded: no inhibition
inhibition of βKlotho binding to immobilized FGF21 [3]: failed to inhibit; also recorded: no inhibition

binding of FGF23 to FGFR1c ectodomain alone [4]: poor binding
B2: FGF23^28-251: human FGF23 (A28 to I251), bioactive full-length ligand expressed in E. coli (protein, listed as Homo sapiens)
chain: ASPLLGSSWGGLIHLYTATARNSYHLQIHKNGHVDGAPHQTIYSALMIRSEDAGFVVITGVMSRRYLCMDFRGNIFGSHYFDPENCRFQHQTLENGYDVYHSPQYHFLVSLGRAKRAFLPGMNPPPYSQFLSRRNEIPLIHFNTPIPRRHTRSAEDDSERDPLNVLKPRARMTPAPASCSQELPSAEDNSPMASDPLGVVRGGRVNTHAGGTGPEGCRPFAKFI
